Values quoted from earlier work, collected in article PMC8894612.

Molecular target: Regnase-1 (UniProt Q5D1E7)
Assay: Biacore SPR

Sequence of UniProt Q5D1E7 (Q5D1E7 whole entry): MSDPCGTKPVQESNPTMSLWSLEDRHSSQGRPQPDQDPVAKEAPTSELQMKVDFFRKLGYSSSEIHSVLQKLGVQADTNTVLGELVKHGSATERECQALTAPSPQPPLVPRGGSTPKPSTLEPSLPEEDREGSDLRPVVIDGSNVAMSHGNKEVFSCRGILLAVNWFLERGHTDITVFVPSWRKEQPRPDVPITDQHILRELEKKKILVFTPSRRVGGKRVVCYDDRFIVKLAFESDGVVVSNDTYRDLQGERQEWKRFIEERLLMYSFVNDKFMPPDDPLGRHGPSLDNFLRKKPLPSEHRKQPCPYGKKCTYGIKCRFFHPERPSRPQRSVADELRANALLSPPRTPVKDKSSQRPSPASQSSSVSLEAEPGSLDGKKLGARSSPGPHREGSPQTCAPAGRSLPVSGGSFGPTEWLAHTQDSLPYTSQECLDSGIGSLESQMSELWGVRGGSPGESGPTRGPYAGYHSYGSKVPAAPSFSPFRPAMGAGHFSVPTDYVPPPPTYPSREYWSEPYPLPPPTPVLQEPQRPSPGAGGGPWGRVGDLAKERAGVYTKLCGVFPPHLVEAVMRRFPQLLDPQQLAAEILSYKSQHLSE

- Kd: 417 nM
Substance: Roquin-1 (from UniProt Q4VGL6)
